Legend:
[1] = biological target: T1, c-Src tyrosine kinase (Mus musculus, UniProt P05480, P80A); assay: tyrosine phosphorylation on co-expression with c-Src in insect cells, western blotting with phosphorylated tyrosine specific antibody; assay type: cell-based, Spodoptera frugiperda; details: glutathione bead purified, FIG. 2, FIG. 4
T1 construct: Full length human c-Src gene was per amplified from the vector of pUSE human O-Src wild (Upstate Biotechnology); host or cells: sf9 insect cells co-infected with two recombinant baculoviruses
Description: The results shown in FIG. 4 were obtained by co-expressing a fused protein GST-DDR2 CKD, a fused protein (GST-DDR1b CKD) of the GST and the human DDR1b cytosolic tyrosine kinase domain, a fused protein (GST-Akt1) of the GST and the full-length mouse Akt1 kinase and a fused protein (GST-CDK4) of the GST and the full-length human CDK4 kinase with the c-Src protein without GST tagging in insect cells, respectively; purifying the respective expressed product using glutathione beads; performing SDS-PAGE; and performing the western blotting test using a phosphorylated tyrosine specific antibody and coomassie staining.
The results shown in FIG. 4 have been obtained by co-expressing the full-length c-Src protein together with the fused proteins, GST-DDR2 CKD, GST-DDR1b CKD, GST-Akt1 and GST-CDK4, respectively; in sf9 cells, then performing a western blotting test on each purified GST tagged protein using a phosphorylated tyrosine specific antibody. The presence of a similar amount of each purified GST tagged protein was shown by CBB staining.
GST tagged kinase defective DDR2 cytosolic domain (GST-kd-DDR2-CKD) with intact three tyrosines in the activation loop or with various phenylalanine mutations described in the text were co-expressed with Src in sf9 cells. GST tagged proteins were purified and the same amount of proteins estimated by CBB staining was used for western blotting using P-tyro antibody.
Phospho-tyrosine specific antibody was purchased from Cell Signaling Inc, USA. Specific antibodies to human c-Src, human c-Fyn, and she were obtained from SantaCruz, USA. Samples were boiled for 2 min in 1× lameli sample buffer, and loaded in 10% SDS-PAGE. Proteins were transferred to Immobilon-P membrane (Millipore) and blacked by 10% skim milk in TBS for an hour. The membrane was immunoblotted with antibodies for 2 hours and subsequently washed with 1×TBS five times. Then it was incubated with HRP conjugated secondary antibodies for an hour and protein bands were detected using chemiluminescence kit (Amersham).

[2] = test system: sf9 cells; assay: tyrosine phosphorylation by H2O2 processing of expressing insect cells, western blotting with phosphorylated tyrosine specific antibody; assay type: cell-based, Spodoptera frugoperda; details: 200 μM H2O2 for half of an hour; FIG. 2, FIG. 5
Description: The results shown in FIG. 5 were obtained by solely expressing the fused proteins, GST-DDR2 CKD, the GST-DDR1b CKD, the GST-CDK4 and the GST-CDK1, respectively, in insect cells; processing with 200 μM of H2O2 for half of an hour; purifying the respective expressed product using glutathione beads; performing the SDS-PAGE; and performing the western blotting test using an phosphorylated tyrosine specific antibody and coomassie staining.
The results shown in FIG. 5 have been obtained by solely expressing GST-DDR2 CKD, GST-DDR1b CKD, GST-CDK4 and GST-CDK1, respectively in sf9 cells; processing each expressed cells with H2O2 of 200 uM for half of an hour or not; and then purifying the GST tagged protein followed by a western blotting using a phosphorylated tyrosine specific antibody. The presence of a similar amount of each purified GST tagged protein was shown by CBB staining.
The recombinant baculoviruses having the GST-DDR2 CKD coding gene were transfected into sf9 insect cells, by setting MOU to 10 and the cells were cultured for 24 to 72 hours, to express the protein. […], at the concentration of 200 μM was added to the cultured cells. The cells were left for half of an hour, and collected. The collected cells were lysed and the GST-DDR2 CKD was purified from the expressed products, using the glutathione agarose bead column chromatography. The purified protein was subjected to an electrophoresis in 10% polyacrylamaid gel.
After completing the electrophoresis, the protein developed in the gel was transferred to nitrocellulose, and then subjected to a western blotting using a phosphorylated tyrosine specific antibody (Cell signaling Inc, USA), to measure the chemiluminescence signal using x-ray film. For the control, the chemical luminescence of the case without H2O2 processing was measured by the method as mentioned above.

Molecule	tyrosine phosphorylation induced by co-expression with c-Src [1]	tyrosine phosphorylation induced by H2O2 processing [2]
GST-DDR1b CKD: fused protein of the GST and the human DDR1b cytosolic tyrosine kinase domain, control (protein, left off: a dimerising Fc or GST, fused protein of the GST and the human DDR1b cytosolic tyrosine kinase domain, control) VLEEELTVHLSVPGDTILINNRPGPREPPPYQEPRPRGNPPHSAPCVPNGSALLLSNPAYRLLLATYARPPRGPGPPTPAWAKPTNTQAYSGDYMEPEKPGAPLLPPPPQNSVPHYAEADIVTLQGVTGGNTYAVPALPPGAVGDGPPRVDFPRSRLRFKEKLGEGQFGEVHLCEVDSPQDLVSLDFPLNVRKGHPLLVAVKILRPDATKNARNDFLKEVKIMSRLKDPNIIRLLGVCVQDDPLCMITDYMENGDLNQFLSAHQLEDKAAEGAPGDGQAAQGPTISYPMLLHVAAQIASGMRYLATLNFVHRDLATRNCLVGENFTIKIADFGMSRNLYAGDYYRVQGRAVLPIRWMAWECILMGKFTTASDVWAFGVTLWEVLMLCRAQPFGQLTDEQVIENAGEFFRDQGRQVYLSRPPACPQGLYELMLRCWSRESEQRPPFSQLHRFLAEDALNTV	poorly induced or never induced	poorly induced or never induced
GST-CDK4: fused protein of the GST and the full-length human CDK4 kinase, control (protein, left off: a dimerising Fc or GST, fused protein of the GST and the full-length human CDK4 kinase, control) MATSRYEPVAEIGVGAYGTVYKARDPHSGHFVALKSVRVPNGGGGGGGLPISTVREVALLRRLEAFEHPNVVRLMDVCATSRTDREIKVTLVFEHVDQDLRTYLDKAPPPGLPAETIKDLMRQFLRGLDFLHANCIVHRDLKPENILVTSGGTVKLADFGLARIYSYQMALTPVVVTLWYRAPEVLLQSTYATPVDMWSVGCIFAEMFRRKPLFCGNSEADQLGKIFDLIGLPPEDDWPRDVSLPRGAFPPRGPRPVQSVVPEMEESGAQLLLEMLTFNPHKRISAFRALQHSYLHKDEGNPE	poorly induced or never induced	poorly induced or never induced
GST-Akt1: fused protein of the GST and the full-length mouse Akt1 kinase, control (protein, left off: a dimerising Fc or GST, fused protein of the GST and the full-length mouse Akt1 kinase, control) MNDVAIVKEGWLHKRGEYIKTWRPRYFLLKNDGTFIGYKERPQDVDQRESPLNNFSVAQCQLMKTERPRPNTFIIRCLQWTTVIERTFHVETPEEREEWATAIQTVADGLKRQEEETMDFRSGSPSDNSGAEEMEVSLAKPKHRVTMNEFEYLKLLGKGTFGKVILVKEKATGRYYAMKILKKEVIVAKDEVAHTLTENRVLQNSRHPFLTALKYSFQTHDRLCFVMEYANGGELFFHLSRERVFSEDRARFYGAEIVSALDYLHSEKNVVYRDLKLENLMLDKDGHIKITDFGLCKEGIKDGATMKTFCGTPEYLAPEVLEDNDYGRAVDWWGLGVVMYEMMCGRLPFYNQDHEKLFELILMEEIRFPRTLGPEAKSLLSGLLKKDPTQRLGGGSEDAKEIMQHRFFANIVWQDVYEKKLSPPFKPQVTSETDTRYFDEEFTAQMITITPPDQDDSMECVDSERRPHFPQFSYSASGTA	poorly induced or never induced	–
